± gives the uncertainty stated by the source.
Test: self-splicing fitness, log relative to wild type (ln ratio); higher = more splicing; Tetrahymena group I intron in knt gene, E. coli kanamycin selection, DiMSum; sequences stand for … in CUCUCU…GGAGGGAAAAGUUAUCAGGCAUGCACCUGGUAGCUAGUCUUUAAACCAAUAGAUUGCAUCGGUUUAAAAGGCAAGACCGUCAAAUUGCGGGAAAGGGGUCAACAGCCGUUCAGUACCAAGUCUCAGGGGAAACUUUGAGAUGGCCUUGCAAAGGGUAUGGUAAUAAGCUGACGGACAUGGUCCUAACCACGCAGCCAAGUCCUAAGUCAACAGAUCUUCUGUUGAUAUGGAUGCAGUUCACAGACUAAAUGUCGGUCGGGGAAGAUGUAUUCUUCUCAUAAGAUAUAGUCGGACCUCUCCUUAAUGGGAGCUAGCGGAUGAAGUGAUGCAACACUGGAGCCGCUGGGAACUAAUUUGUAUGCGAAAGUAUAUUGAUUAGUUUUGGAGUACUCGUGGUCG
Method in brief: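 Library with all eight P1ex-region intron nucleotides randomised, intron inside the knt kanamycin-resistance gene on pET-22b(+), in E. coli BL21(DE3). Cells grew overnight at 37°C or 30°C on LB agar with or without 25 μg/mL kanamycin (plus 100 μg/mL carbenicillin, 50 μM IPTG, 0.2% rhamnose), in six replicate transformations. Pooled colonies were amplicon-sequenced on Illumina HiSeq 2500. DiMSum fitness is the error-weighted combination of wild-type-normalised replicate fold changes, kanamycin versus none.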

| Sequence | self-splicing fitness (ln) (30 °C) | self-splicing fitness (ln) (37 °C) |
| --- | --- | --- |
| UGACAGCAAUAUUACGAUGG | -1.5 ± 0.084 | 0.221 ± 0.12 |
| UGACAGCAAUAUUACGCAGC | -3.89 ± 0.33 | -2.43 ± 0.27 |
| UGACAGCAAUAUUACGCAGG | -3.54 ± 0.35 | -1.4 ± 0.2 |
| UGACAGCAAUAUUACGCCUU | -2.19 ± 0.12 | -1.15 ± 0.12 |
| UGACAGCAAUAUUACGCGGU | -3.56 ± 0.19 | -2.68 ± 0.19 |
| UGACAGCAAUAUUACGCUAU | -3.7 ± 0.2 | -1.09 ± 0.1 |
| UGACAGCAAUAUUACGCUGG | -2.21 ± 0.18 | -1.92 ± 0.33 |
| UGACAGCAAUAUUACGCUUA | -1.26 ± 0.088 | -0.0997 ± 0.094 |
| UGACAGCAAUAUUACGGCAC | -3.55 ± 0.19 | -2.23 ± 0.19 |
| UGACAGCAAUAUUACGGGAA | -1.33 ± 0.12 | -0.827 ± 0.081 |
| UGACAGCAAUAUUACGGGAU | -3.3 ± 0.17 | -2.94 ± 0.15 |
| UGACAGCAAUAUUACGGGCC | -3.34 ± 0.22 | -2.23 ± 0.27 |
| UGACAGCAAUAUUACGGGGA | -1.25 ± 0.087 | -1.61 ± 0.12 |
| UGACAGCAAUAUUACGGGGC | -2.96 ± 0.13 | -2.56 ± 0.12 |
| UGACAGCAAUAUUACGGGUC | -3.81 ± 0.24 | -2.94 ± 0.2 |
| UGACAGCAAUAUUACGGUCA | -2.97 ± 0.28 | -0.408 ± 0.17 |
| UGACAGCAAUAUUACGUAAA | -1.01 ± 0.08 | -1.26 ± 0.11 |
| UGACAGCAAUAUUACGUGAG | -0.267 ± 0.028 | -0.365 ± 0.046 |
| UGACAGCAAUAUUACGUUGU | -3.48 ± 0.15 | -2.58 ± 0.2 |
| UGACAGCAAUAUUACGUUUU | -2.76 ± 0.11 | -1.43 ± 0.098 |

| Sequence | self-splicing fitness (ln) (30 °C) | self-splicing fitness (ln) (37 °C) |
| --- | --- | --- |
| UGAGAGCAAUAUUACGAAGG | -2.94 ± 0.18 | -1.85 ± 0.27 |
| UGAGAGCAAUAUUACGACGU | -2.66 ± 0.19 | -1.78 ± 0.24 |
| UGAGAGCAAUAUUACGAGAA |  | -1.39 ± 0.43 |
| UGAGAGCAAUAUUACGAUUU | -2.34 ± 0.17 | -2.26 ± 0.27 |
| UGAGAGCAAUAUUACGCACU | -3.11 ± 0.32 | -2.02 ± 0.21 |
| UGAGAGCAAUAUUACGCAGC | -3.13 ± 0.23 | -2.16 ± 0.3 |
| UGAGAGCAAUAUUACGCCAG | -3.52 ± 0.42 | -2.41 ± 0.35 |
| UGAGAGCAAUAUUACGCCCA | -1.49 ± 0.26 |  |
| UGAGAGCAAUAUUACGGACA | -1.66 ± 0.18 | -0.674 ± 0.2 |
| UGAGAGCAAUAUUACGGAGG | -2.31 ± 0.28 | -1.91 ± 0.3 |
| UGAGAGCAAUAUUACGGGCA | -0.578 ± 0.12 | -0.806 ± 0.17 |
| UGAGAGCAAUAUUACGGGGG | -3.4 ± 0.31 | -1.99 ± 0.22 |
| UGAGAGCAAUAUUACGGUAG | -3.74 ± 0.34 | -2.88 ± 0.38 |
| UGAGAGCAAUAUUACGUAGC |  | -2.96 ± 0.4 |
| UGAGAGCAAUAUUACGUCAA | -3.55 ± 0.29 | -2.89 ± 0.3 |
| UGAGAGCAAUAUUACGUCCG | -1.25 ± 0.23 | -1.19 ± 0.42 |
| UGAGAGCAAUAUUACGUCUU | -3.18 ± 0.44 | -1.9 ± 0.28 |
| UGAGAGCAAUAUUACGUGAA | -4.19 ± 0.33 | -2.35 ± 0.27 |
| UGAUAGCAAUAUUACGACAA |  | -2.07 ± 0.35 |
| UGAUAGCAAUAUUACGACGC |  | -3.55 ± 0.29 |

— the supplement of paper PMC7877785
